Several values for one entry are separate records, joined by “and”; a condition that tells them apart may be missing. Equal entries are not always repeated.
Columns and labels:
Test in all cases: purified protein, by the assay type
Conditions in all cases: other: pH 7.4, 20 μM (S)-adenosyl methionine
[1] = substrate: C[C@@H](N)Cc1c[nH]cn1
[2] = substrate: NCCc1c[nH]cn1
[3] = substrate: c1cc(Cc2cnc[nH]2)ccn1

B1: human HMT (Homo sapiens) (protein)
chain: MASSMRSLFSDHGKYVESFRRFLNHSTEHQCMQEFMDKKLPGIIGRIGDTKSEIKILSIGGGAGEIDLQILSKVQAQYPGVCINNEVVEPSAEQIAKYKELVAKTSNLENVKFAWHKETSSEYQSRMLEKKELQKWDFIHMIQMLYYVKDIPATLKFFHSLLGTNAKMLIIVVSGSSGWDKLWKKYGSRFPQDDLCQYITSDDLTQMLDNLGLKYECYDLLSTMDISDCFIDGNENGDLLWDFLTETCNFNATAPPDLRAELGKDLQEPEFSAKKEGKVLFNNTLSFIVIEA
Km [1]: 16.26 µM | Vmax [1]: 0.56 µM/min | Vmax/Km [1]: 0.034 min⁻¹ | Km [2]: 3.93 µM | Vmax [2]: 0.19 µM/min | Vmax/Km [2]: 0.048 min⁻¹ | Vmax [3]: 0.004 µM/min and 0.003 µM/min | Vmax/Km [3]: 0.0011 min⁻¹ and 0.0012 min⁻¹

— patent US20120129892A1, “NOVEL PHARMACEUTICALLY ACCEPTABLE SALTS OF 4-(1H-IMIDAZOL-4-[…])PYRIDINE AND THEIR THERAPEUTICAL USES” (BIOPROJET, priority 2009, published 2012)
